For this experiment, the target named is T1, soluble human GPC3 (human, UniProt P51654 25-563, limits assumed).
T1 construct: soluble human GPC3 as analyte; also called glypican 3
The experiment can be described thus: SPR (Biacore), soluble human GPC3.

44 molecules from patent publication US20210388110A1 (published 2021) can be followed below.

Where a chain is given by its changes, count along the chain named.

T1 sequence (P51654 other isoform, or with tags, fused parts or gaps limits assumed, form in doubt): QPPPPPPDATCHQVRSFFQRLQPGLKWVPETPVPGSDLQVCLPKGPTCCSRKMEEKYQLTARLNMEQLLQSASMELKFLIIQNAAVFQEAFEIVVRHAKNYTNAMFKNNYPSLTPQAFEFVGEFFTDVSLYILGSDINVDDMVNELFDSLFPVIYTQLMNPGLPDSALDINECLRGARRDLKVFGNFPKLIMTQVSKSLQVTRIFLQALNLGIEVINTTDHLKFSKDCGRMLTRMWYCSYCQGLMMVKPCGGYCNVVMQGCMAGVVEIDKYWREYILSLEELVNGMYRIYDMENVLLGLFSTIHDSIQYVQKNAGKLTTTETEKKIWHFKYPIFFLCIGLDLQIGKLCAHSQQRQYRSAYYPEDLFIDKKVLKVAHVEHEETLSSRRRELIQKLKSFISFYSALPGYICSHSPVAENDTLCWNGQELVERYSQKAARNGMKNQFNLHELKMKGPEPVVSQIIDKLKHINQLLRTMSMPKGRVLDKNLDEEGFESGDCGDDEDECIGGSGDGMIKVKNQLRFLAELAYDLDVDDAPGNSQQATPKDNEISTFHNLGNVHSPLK

B1: H0610-G1dh/none-Hi-Kn010G3/L0002-k0 (antibody, human IgG1, kappa)
heavy: not shown
chain: EPKSSDKTHTCPPCPAPELLGGPSVFLFPPKPKDTLMISRTPEVTCVVVDVSHEDPEVKFNWYVDGVEVHNAKTKPREEQYNSTYRVVSVLTVLHQDWLNGKEYKCKVSNKALPAPIEKTISKAKGQPREPQVCTLPPSRDELTKNQVSLWCLVKGFYPSDIAVEWESNGQPENNYKTTPPVLDSDGSFFLYSKLTVDKSRWQQGNVFSCSVMHEALHNRYTQKSLSLSP
light: DIVMTQSPLSLPVTPGEPASISCRASQSLVHSNRNTYLHWYQQKPGQAPRLLIYKVSNRFSGVPDRFSGSGSGTDFTLKISRVEAEDVGVYYCGQGTQVPYTFGQGTKLEIKRTVAAPSVFIFPPSDEQLKSGTASVVCLLNNFYPREAKVQWKVDNALQSGNSQESVTEQDSKDSTYSLSSTLTLSKADYEKHKVYACEVTHQGLSSPVTKSFNRGEC
notes: single-arm (one Fab)
In the case of B1, the Kd came out at 4.43 nM.

B2: H0610-G1dh/none-Hi-Kn010G3/L0014-k0 (antibody, human IgG1, kappa)
heavy: not shown
chain: B1 chain
light: B1 light with A25S, L29M
notes: single-arm (one Fab)
B2 registered a dissociation constant (Kd) of 1.82 nM.

B3: H0610-G1dh/none-Hi-Kn010G3/L0045-k0 (antibody, human IgG1, kappa)
heavy: not shown
chain: B1 chain
light: B1 light with A25S, S32Q
notes: single-arm (one Fab)
As for B3, binding was put at a Kd of 4.66 nM.

B4: H0610-G1dh/none-Hi-Kn010G3/L0016-k0 (antibody, human IgG1, kappa)
heavy: not shown
chain: B1 chain
light: B1 light with A25S, L29V
notes: single-arm (one Fab)
The molecule B4 gave an equilibrium dissociation constant (Kd) of 4.44 nM.

B5: H0610-G1dh/none-Hi-Kn010G3/L0042-k0 (antibody, human IgG1, kappa)
heavy: not shown
chain: B1 chain
light: B1 light with A25S, S32M
notes: single-arm (one Fab)
The molecule B5 displayed a dissociation constant Kd of 4.27 nM. This Kd and that of the molecule before are within 1.5-fold of each other.

B6: H0610-G1dh/none-Hi-Kn010G3/L0006-k0 (antibody, human IgG1, kappa)
heavy: not shown
chain: B1 chain
light: B1 light with A25P
notes: single-arm (one Fab)
As for B6, the Kd worked out at 3.04 nM.

B7: H0610-G1dh/none-Hi-Kn010G3/L0134-k0 (antibody, human IgG1, kappa)
heavy: not shown
chain: B1 chain
light: B1 light with A25S, F60Y
notes: single-arm (one Fab)
Turning to B7, binding was put at a Kd of 2.53 nM.

B8: H0610-G1dh/none-Hi-Kn010G3/L0124-k0 (antibody, human IgG1, kappa)
heavy: not shown
chain: B1 chain
light: B1 light with A25S, F60L
notes: single-arm (one Fab)
As for B8, binding was characterised by a dissociation constant (Kd) of 0.972 nM.

B9: H0610-G1dh/none-Hi-Kn010G3/L0039-k0 (antibody, human IgG1, kappa)
heavy: not shown
chain: B1 chain
light: B1 light with A25S, S32H
notes: single-arm (one Fab)
B9 showed an equilibrium dissociation constant (Kd) of 3.41 nM.

B10: H0610-G1dh/none-Hi-Kn010G3/L0003-k0 (antibody, human IgG1, kappa)
heavy: not shown
chain: B1 chain
light: B1 light with A25I
notes: single-arm (one Fab)
On to B10, for which the equilibrium dissociation constant (Kd) stood at 4.01 nM. The Kd values of the last two molecules are within 1.5-fold of each other.

B11: H0610-G1dh/none-Hi-Kn010G3/L0013-k0 (antibody, human IgG1, kappa)
heavy: not shown
chain: B1 chain
light: B1 light with A25S, L29I
notes: single-arm (one Fab)
For the molecule B11, binding was put at a Kd of 3.35 nM.

B12: H0610-G1dh/none-Hi-Kn010G3/L0041-k0 (antibody, human IgG1, kappa)
heavy: not shown
chain: B1 chain
light: B1 light with A25S, S32L
notes: single-arm (one Fab)
B12: the dissociation constant Kd is 4.85 nM.

B13: H0610-G1dh/none-Hi-Kn010G3/L0011-k0 (antibody, human IgG1, kappa)
heavy: not shown
chain: B1 chain
light: B1 light with A25S, S28P
notes: single-arm (one Fab)
For B13, the dissociation constant (Kd) is 2.76 nM.

B14: H0610-G1dh/none-Hi-Kn010G3/L0125-k0 (antibody, human IgG1, kappa)
heavy: not shown
chain: B1 chain
light: B1 light with A25S, F60M
notes: single-arm (one Fab)
Molecule B14 showed a Kd of 1.71 nM.

B15: H0610-G1dh/none-Hi-Kn010G3/L0145-k0 (antibody, human IgG1, kappa)
heavy: not shown
chain: B1 chain
light: B1 light with A25S, S61R
notes: single-arm (one Fab)
The molecule B15 showed a dissociation constant Kd of 2.66 nM.

B16: H0610-G1dh/none-Hi-Kn010G3/L0151-k0 (antibody, human IgG1, kappa)
heavy: not shown
chain: B1 chain
light: B1 light with A25S, G94E
notes: single-arm (one Fab)
B16: the Kd was 1.25 nM.

B17: H0610-G1dh/none-Hi-Kn010G3/L0066-k0 (antibody, human IgG1, kappa)
heavy: not shown
chain: B1 chain
light: B1 light with A25S, N35H
notes: single-arm (one Fab)
On to B17, for which binding was put at a Kd of 4.2 nM.

B18: H0610-G1dh/none-Hi-Kn010G3/L0082-k0 (antibody, human IgG1, kappa)
heavy: not shown
chain: B1 chain
light: B1 light with A25S, L38V
notes: single-arm (one Fab)
Regarding B18, the equilibrium dissociation constant (Kd) was 3.43 nM.

B19: H0610-G1dh/none-Hi-Kn010G3/L0090-k0 (antibody, human IgG1, kappa)
heavy: not shown
chain: B1 chain
light: B1 light with A25S, H39M
notes: single-arm (one Fab)
With B19, the dissociation constant Kd stood at 1.12 nM.

B20: H0610-G1dh/none-Hi-Kn010G3/L0129-k0 (antibody, human IgG1, kappa)
heavy: not shown
chain: B1 chain
light: B1 light with A25S, F60R
notes: single-arm (one Fab)
In turn, B20 had a Kd of 4.54 nM.

B21: H0610-G1dh/none-Hi-Kn010G3/L0141-k0 (antibody, human IgG1, kappa)
heavy: not shown
chain: B1 chain
light: B1 light with A25S, S61M
notes: single-arm (one Fab)
With B21, the dissociation constant (Kd) stood at 3.86 nM.

B22: H0610-G1dh/none-Hi-Kn010G3/L0007-k0 (antibody, human IgG1, kappa)
heavy: not shown
chain: B1 chain
light: B1 light with A25T
notes: single-arm (one Fab)
B22 had a dissociation constant Kd of 4.39 nM.

B23: H0610-G1dh/none-Hi-Kn010G3/L0047-k0 (antibody, human IgG1, kappa)
heavy: not shown
chain: B1 chain
light: B1 light with A25S, S32W
notes: single-arm (one Fab)
The molecule B23 returned a dissociation constant (Kd) of 2.23 nM.

B24: H0610-G1dh/none-Hi-Kn010G3/L0093-k0 (antibody, human IgG1, kappa)
heavy: not shown
chain: B1 chain
light: B1 light with A25S, H39Q
notes: single-arm (one Fab)
As for B24, the dissociation constant (Kd) amounted to 0.106 nM.

B25: H0610-G1dh/none-Hi-Kn010G3/L0032-k0 (antibody, human IgG1, kappa)
heavy: not shown
chain: B1 chain
light: B1 light with A25S, H31R
notes: single-arm (one Fab)
In the case of B25, binding was characterised by a dissociation constant (Kd) of 3.72 nM.

B26: H0610-G1dh/none-Hi-Kn010G3/L0064-k0 (antibody, human IgG1, kappa)
heavy: not shown
chain: B1 chain
light: B1 light with A25S, N35F
notes: single-arm (one Fab)
B26 showed a Kd of 3.37 nM.

B27: H0610-G1dh/none-Hi-Kn010G3/L0015-k0 (antibody, human IgG1, kappa)
heavy: not shown
chain: B1 chain
light: B1 light with A25S, L29P
notes: single-arm (one Fab)
B27 yielded a Kd of 1.31 nM.

B28: H0610-G1dh/none-Hi-Kn010G3/L0065-k0 (antibody, human IgG1, kappa)
heavy: not shown
chain: B1 chain
light: B1 light with A25S, N35G
notes: single-arm (one Fab)
On to B28, for which the equilibrium dissociation constant (Kd) stood at 4.79 nM.

B29: H0610-G1dh/none-Hi-Kn010G3/L0008-k0 (antibody, human IgG1, kappa)
heavy: not shown
chain: B1 chain
light: B1 light with A25V
notes: single-arm (one Fab)
On to B29, for which binding was put at a Kd of 3.3 nM.

B30: H0610-G1dh/none-Hi-Kn010G3/L0149-k0 (antibody, human IgG1, kappa)
heavy: not shown
chain: B1 chain
light: B1 light with A25S, G94A
notes: single-arm (one Fab)
The molecule B30 had a dissociation constant Kd of 2.16 nM.

B31: H0610-G1dh/none-Hi-Kn010G3/L0148-k0 (antibody, human IgG1, kappa)
heavy: not shown
chain: B1 chain
light: B1 light with A25S, S61W
notes: single-arm (one Fab)
B31 returned an equilibrium dissociation constant (Kd) of 3.28 nM.

B32: H0610-G1dh/none-Hi-Kn010G3/L0107-k0 (antibody, human IgG1, kappa)
heavy: not shown
chain: B1 chain
light: B1 light with A25S, N58I
notes: single-arm (one Fab)
Take B32: the affinity, expressed as Kd, was 4.38 nM. The Kd values of the last two molecules are within 1.5-fold of each other.

B33: H0610-G1dh/none-Hi-Kn010G3/L0085-k0 (antibody, human IgG1, kappa)
heavy: not shown
chain: B1 chain
light: B1 light with A25S, H39E
notes: single-arm (one Fab)
Take B33: binding was characterised by a dissociation constant (Kd) of 1.17 nM.

B34: H0610-G1dh/none-Hi-Kn010G3/L0075-k0 (antibody, human IgG1, kappa)
heavy: not shown
chain: B1 chain
light: B1 light with A25S, N35W
notes: single-arm (one Fab)
The molecule B34 yielded a Kd of 2.85 nM.

B35: H0610-G1dh/none-Hi-Kn010G3/L0012-k0 (antibody, human IgG1, kappa)
heavy: not shown
chain: B1 chain
light: B1 light with A25S, L29F
notes: single-arm (one Fab)
With B35, the Kd was 1.55 nM.

B36: H0610-G1dh/none-Hi-Kn010G3/L0038-k0 (antibody, human IgG1, kappa)
heavy: not shown
chain: B1 chain
light: B1 light with A25S, S32F
notes: single-arm (one Fab)
In the case of B36, the affinity, expressed as Kd, was 2.75 nM.

B37: H0610-G1dh/none-Hi-Kn010G3/L0079-k0 (antibody, human IgG1, kappa)
heavy: not shown
chain: B1 chain
light: B1 light with A25S, L38I
notes: single-arm (one Fab)
Take B37: binding was put at a Kd of 4.23 nM. This Kd is about 1.5-fold higher than that of the molecule before.

B38: H0610-G1dh/none-Hi-Kn010G3/L0140-k0 (antibody, human IgG1, kappa)
heavy: not shown
chain: B1 chain
light: B1 light with A25S, S61L
notes: single-arm (one Fab)
In the case of B38, the affinity, expressed as Kd, was 3.38 nM. This Kd and that of the molecule before are within 1.5-fold of each other.

B39: H0610-G1dh/none-Hi-Kn010G3/L0009-k0 (antibody, human IgG1, kappa)
heavy: not shown
chain: B1 chain
light: B1 light with A25S, S26P
notes: single-arm (one Fab)
Consider B39, for which binding was put at a Kd of 2.99 nM.

B40: H0610-G1dh/none-Hi-Kn010G3/L0143-k0 (antibody, human IgG1, kappa)
heavy: not shown
chain: B1 chain
light: B1 light with A25S, S61P
notes: single-arm (one Fab)
As to B40, the Kd worked out at 0.573 nM.

B41: H0610-G1dh/none-Hi-Kn010G3/L0127-k0 (antibody, human IgG1, kappa)
heavy: not shown
chain: B1 chain
light: B1 light with A25S, F60P
notes: single-arm (one Fab)
B41 had a Kd of 3.12 nM. This Kd is about 5.4-fold higher than that of the molecule before.

B42: H0610-G1dh/none-Hi-Kn010G3/L0115-k0 (antibody, human IgG1, kappa)
heavy: not shown
chain: B1 chain
light: B1 light with A25S, N58W
notes: single-arm (one Fab)
Regarding B42, the Kd came to 4.34 nM.

B43: H0610-G1dh/none-Hi-Kn010G3/L0044-k0 (antibody, human IgG1, kappa)
heavy: not shown
chain: B1 chain
light: B1 light with A25S, S32P
notes: single-arm (one Fab)
Turning to B43, the dissociation constant (Kd) worked out at 4.57 nM.

B44: H0610-G1dh/none-Hi-Kn010G3/L0122-k0 (antibody, human IgG1, kappa)
heavy: not shown
chain: B1 chain
light: B1 light with A25S, F60I
notes: single-arm (one Fab)
B44 returned a Kd of 2.42 nM.
